A short description of the data set: soluble on expression in E. coli; label from the status in PepcDB or PDB records.
As for “MSLLNENDIEQLTLQRLQSLGWEYRYGKDLPVHEGKFARGDLSGVVFVEQLREAVRKLNPQLPESAVDSVVKSATKSDIGDLVVRNQTFYKLLRDGVRVEYTQNGEQKIEMVRLVDFEHWGNNRFVAVNQLEIRSRKGGKRIPDIIGFVNGLPLVVFELKNPLRESADLLQAFNQFETYKDEIAELFVYNQALIISDGIVARLGSLSADFQRFTPWKVVDEKNKSARLYFDDELQSLLNGLMQPEDLLDYIRYFVLFERDSVGKTIKKIAAYHQYYGVNEAVDSTIWATSEKGDRRIGVMWHTQGSGKSISMLFYAGKLLAQPELKNPTIVVVTDRNDLDGQLFQTFSSGKDLIKQTPQQVEDRDQLRQLLAQNEVGGVFFTTIQKFALNEEESRFPILNERNNIIVISDEAHRSQYGFTQKLHNGKFQTGYARHLRDALPNASFIGFTGTPISLEDKDTQDVFGRYVSIYDLQDAVEDGATVPIVYDDARQIRLNKKDHDALFAEIDALLEEEPSTSLRLREKLLGSQERLIELAADFVQHFAKRNEVVDSKAMMVVSSRQICVDLYNQIIALHPEWHSDNINEGAIKIVMTGSASDTPEMQKHIYSKQEKQTLERRFKDPNDPLKVVIVRDMWLTGFDAPCCNTMYLDKPMKGHNLMQAIARVNRVFANKSRENGGLIVDYVGLAKELRAATQQYTNSTGKGQLAEDVQSVFFKMKEQLEFIRTLFATPIEGKTFDVQAALEKDNPNDLLMAIRFAANHILSLDQLSFDGKAHEQHWFNKKETEPRKKAFLKTAGLVKKGYMLCGTLAEVEPYNQEIAFYDAVRAILTKREQKGTGTNERQILLKKLVNQTVYSEGVIDLFDLLEKPQPQISLLSEEFLQTVKNSPTKNLWVSAMERYLASEIKVKSGTNLTLQKDFERRLKEALNQYHNHNLTVVEILDELFKMSQDFQERLALGKKLGLTKEELAFYEALSQNQSAKDLMGDEVLSKLAKEITETLRKSVTIDWQYKEAVRARIRLLVRRALQKYKYPPDKQEEAVTYVIKQAEEIAEDLTGLEGHHHHHH”, the “soluble on expression in E. coli” value is listed as “soluble”.

As for “MARKKTITKEQILTAAYEVVATEGFSKFTARNIANKMKCSTQPIYLEFKNMDDLRDALFQKIHKYLAKEVFPVKHTGNTIVDLALNYIHFATSESKLYRALYLEEYGGGKKMQEFSYHYFTEAVKADPEYANLNDVQIDSLHMGTWVVATGVAALMTSGIIHPSEEQIIHLMKDSIEAILERDEPIDIDL”, the “soluble on expression in E. coli” value is listed as “soluble”.

“MNINKKVTLQRIQTLTELHGAPGFEEEVKNYMTQQMAPYVDEFIENRMGGFFGVKKSKNPNAKRVMIAAHMDEIGFMITNITKNGMIQFTNLGGVANDIWQGQRLVIKNRNGDKIIGVVSNIPKHFRTGSEGAPEIKDLTLDIGAQNEDEVRERGIDIGDTIVPHTPFTQLSEHRYSAKAWDNRYGCVLAIEILELLKDIELDVDLYVGANVQEEVGLRGAKASAEMIDPDVAFVVDCSPANDVKGNQPLSGELGKGTLIRIKDGTMILKPVFRDYLLKLVEAHDIEHQYYMSPGGTDGGEIHKANIGIPTAVIGVCARYIHSTDSVFDIRDYFAARSLLSEAICNLDNNQIETLQYK”: the “soluble on expression in E. coli” value is on record as “not soluble”.

As for “MGSDKIHHHHHHMGRAPTMEADMRILLLCWRDTTHPQGGGSERYLEHIAKYLVASGHEVIFRTARHTDASRRAVRDGVEYQYAGGKYSVYVRAAVAQLMGRLGVGRLRGVDVAVDTQNGIPFFARVFSGVPTILLTHHCHRRQWDVAGPLIARLGWFIESKVSPWVHRGVRYVTVSEPSRDELVELGVPAGNITIVRNGIDDPPAPMNLPPVTRPHLVTLSRLVPHKQIEHAIDVVRELDGVVLDIIGSGWWEPQLREYARDVADRVIFHGQVAEDHKHALLAQAAVHVMPSRKEGWGLAVIEAGQHGVPTVGYSHSGGLRDSVRGGGVLVETPAQLTCAIRQLLADQRYRDELGRRAYGFASTFSWEDTGREFLRVIAQPQIPAAAHSTKQPNPR”, the “soluble on expression in E. coli” value is “not soluble”.

On to “ASFPFGDFTADTKGTSDIAYSFRNDISGTGGLIKKGGSQLQLHGNNTYTGKTIIEGGSLVLYGNNKSDMRVETKGALIYNGAASGGSLNSDGIVYLADTDQSGANETVHIKGSLQLDGKGTLYTRLGKLLKVDGTAIIGGKLYMSARGKGAGYLNSTGRRVPFLSAAKIGQDYSFFTNIETDGGLLASLDSVEKTAGSEGDTLSYYVRRGNAARTASAAAHSAPAGLKHAVEQGGSNLENLMVELDASESSATPETVETAAADRTDMPGIRPYGATFRAAAAVQHANAADGVRIFNS”, for which the “soluble on expression in E. coli” value was “not soluble”.

For the sequence “MISYGELIRQIRQSKKISQKEVYTGVISKSYAIEFEKGTHAISSILLEKIVTKLMVSMEEFFFMYHQEELPEKEDFWEAYERACKTDEIAIWELLYQKISSEEGKINQVKSAAIKLELDHIKGKQVMDKKVVRILENYLIEAVFWTLEDIFLFTRMLPYLSLKSRVPFYYKLLNTLDRYRHFERGRRILQTAIASIIDDFIEKNEIEHMELMIRSLKKISDDCEGAYFKILCMYYHGIIERGEGAEIKQAIAILRVLGYENKALKYEAMYRQFSLKATI”, the “soluble on expression in E. coli” value was “not soluble”.

As for “MVYNENTPHFYNKSGKETFMSNILFSVFPNENFIDMSLYQFGWEQCQPSHSYGPAARNHYLFHYVISGTGTLMADDTSGITQTYSVKSGQGFMIFPQQITTYIADQKLPWEYVWIEFDGLRVKEILELAGLTKSAPIYHAHSKEMREVLKEEMLYIARNPEQPPFHLIGHLYLFMDALTRSCTREQTNSAGRLRDFYIHEAIAFIEQNFQNDISVEDIAEVCGLNRSYFGKIFKETLGRSPQEFLMNYRMVKATELLKLTQLSISEISNAVGYANPLHFSRAFKNVYGESPRIWRQNHRT”, the “soluble on expression in E. coli” value is “not soluble”.

As to “MVKVGYIQMEPKILELDKNYSKAEKLIKEASKEGAKLVVLPELFDTGYNFESREEVFDVAQQIPEGETTTFLMELARELGLYIVAGTAEKSGNYLYNSAVVVGPRGYIGKYRKIHLFYREKVFFEPGDLGFKVFDIGFAKVGVMICFDWFFPESARTLALKGAEIIAHPANLVMPYAPRAMPIRALENRVYTITADRVGEERGLKFIGKSLIASPKAEVLSIASETEEEIGVVEIDLNLARNKRLNDMNDIFKDRREEYYFR”, the “soluble on expression in E. coli” value was “soluble”.

With “MSKNCKSCKDLKNRGIDVDCCFEIGDKECASLGDDKGFNGKKNDCQDMHDLNDCLLGRADSALDIHDDCDWKGYLKKLVSTLYNLQKMTICAICGIWKKIHWIEEQIEKIWKKIAKMEDDIDNIASQNWEINTRYGIQESTKGMSVSINRGNGDFIFRWKDWGDAEQTQYLGEGEIRGTVNFGMRPSSNASFDWQVRDVVIQNLSYKTNNIRSVPFTLHLYLTRAGEQEIYTKSHDTTKSFNDNINKTLKLNNNGNVGISSSSGWLQFLEFFNDGPVADDRANLQIEFKNNGKPKPPRYI”, the “soluble on expression in E. coli” value was “not soluble”.

With “MGSDKIHHHHHHMTTSYTITCSRPTNYGAVLQTYGLNTALRKMGVDAKVLDYNPKYYYTSTQPLPIRMVRAVVRFPDLTKGRKVFGKFLEDYVPMSAKTYRTLAEIEADVPQADVYICGSDQIWNCKNKLNGKDDAFFLSFAPAKARKVAYAASIAMPEIPNNQKTRYHRLISDFDAVSVREPSSVPMLEDLGIDNVQSVIDPVFLLERNDWDVIADASDFVPTEDYVLVYGYNRQKDVYAYARRLAKKLGVKVYTIGTAIEDYTLDQDRYFWNASPNTFVNLVRNAKAVVTNSFHGTVFSIVYNKPFHFFTVKQTTNSRMLDLLDSLTLKDRHVVGEELLSNDIDYDRPNQLLAEAKKRSLGFLQTNVASYVSENKPMKG”, the “soluble on expression in E. coli” value is recorded as “not soluble”.

“MHQQIIKFWFEELTPQNWFENNPELDKHIASRFASVLEQAARCELFNWRDSAQGRLAEIIVLDQFSRNVYRNTPKAFAQDPLALALAQEAIRLGHDQELAPEQLSFLYMPFMHSESRLIHVEAEKLFRASGLENNYDFELKHKAIIDQFGRYPHRNAILGRESTPEELAFLQQPGS”: the “soluble on expression in E. coli” value was “soluble”.

Take “MGNGLAKCLIDGDTETFWHAKWQGGSDPLPYDIVIDMKQNIQIAQVELLPRGRGSNNPIKVVEFAASEDNVNWTPIGRFGFTNQDAALEYYVKSIKARYIRLTIPDDGGNSTVAAIRELDVKGTIINLEHHHHHH”: the “soluble on expression in E. coli” value is listed as “not soluble”.

The values above are taken from the DeepSol protein solubility set.
